Assay: label from the status in PepcDB records
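Also: failed if final PepcDB status was selected cloned or expressed and not failed if soluble or beyond.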

| Sequence | protein production |
| --- | --- |
| MSRPDQAARRRAIAAELHVSPTFDARDEAERRIGFVADYLRTAGLRACVLGISGGIDSSTAGRLAQLAVERLRASGYDARFVAMRLPYGAQHDEADARRALAFVRADETLTVDVKPAADAMLAALAAGGLAYLDHAQQDFVLGNIKARERMIAQYAVAGARNGVVIGTDHAAESVMGFFTKFGDGGADVLPLAGLTKRRVRALARMLGADEPLVLKTPTADLETLRPQRPDEHAYGITYEQIDDFLEGKPMDDAVAETVLRFYDATRHKRALPYTMFDWPGHPA | not failed |
| MSRPEGHTLRRRLAGVVFVLVPALLIWLAVAVYDKKFTDSDPVVVETGSAGNQMHPGAEVKLRGVVVGEVRAIDATGDGARLTLAMKPGALDDVPSDVRAQMLPTTLFGERFVALVPPANPSPEPLAAGAVVPQDRSANAIELQQVLDDVLPMLTAVQPQKLSATLSAVSQALEGRGERLGDTLTLLDEHLAEFNPNLPALNRDLKELVKVSHVYADAAPDVITALTDFTTTSGTLAEQEADLAATLGATTRTAEDVTAFLHKNKDNIIRLGDTSRPTLELLAEYSPAFPCTLRTLAEFVPAMDKALGKGTDRPGIHVDVTSVASRGAYRPGRDTPVYDSGGGPRCPSVPYLGALPRPTARTAAPAAEQDLGPANSPQENDLVNELLAPAAGKSPGDLPDWSSLLVGPVYRGTEVTLGLEHHHHHH | failed |
| MSRPPVFPPPQFPPPRPRPFQRTPPAIFPPILGLLALGLGLRRAAEIWGLPAGLAEAVLGATTGLGAFAVAAYAAKVAQRPGVVIEDLRVLPGRAGLAALVLGLLVLAAVLVPYGPAAARAVLVAGLGLQTILAVTVAALLLSGPKEGRVVTPAFHLHFVGFIIGGLTAAPVGWPGLGTVLLAVCAPVAAAIWIASLVQFLRRVPPPPLRPLLAIHLAPAALLGLVAGQQELPLVAQLCAAAGGVLLLAFLASARWLLAGGFSPLWGALTFPLAAYAGLLLVVWPQAGAVLLAAAALVIPPIAAKILQEWAKGRLAVRTNAAQA | failed |
| MSRQQARGALGRAWWLQLALALLPLILVEFFLGELQPLPHGLAMPLFIAALLSMFVNLPLFGAYKRGLIATQKALDTAEEAAAWTRLAQVRRKALFGASLPAWIGVPGVFAGLNGVALILLGVTSLVLFWLYRIPRQLG | failed |
| MSRRAPMFKPLPITLQRGALRLEPLVEADIPELVSLAEANREALQYMDGPTRPDWYRQSLAEQREGRALPLAVRLGVQLVGTTRFAEFLPALPACEIGWTWLDQAQHGSGLNRMIKYLMLKHAFDNLRMVRVQLSTAASNLRAQGAIDKLGAQREGVLRNHRRLAGGRLDDTFVYSITDHEWPQVKAALEASFTG | not failed |
| MSRRSNRTINLPAPYLKRIWLDPSQVHDREAYPFCLPIFPDDFELSFDAAITIIVGENGTGKSTILEGIAALAGYDDAGGGKGYMPVDHSDAREKMGGQLSKALRASWLPKITNGWFFRAESFFSVARYLDKAARDAGQVGPDFLSHSHGEGFLRFFEERCQRQGIFIFDEPESALSPARQIEFLKLLRRMDDSRICQVIMATHSPMLMAYPNAKLLRLGKYGLEPVTVEETDHYRLMREFCDDPRGFVEATLAELEHHHHHH | not failed |
| MSRSGQPPDLKKYMDKKLQIKLNANRMVVGTLRGFDQFMNLVVDNTVEVNGDDKTDIGMVVIRGNSIVTVEALEPVGRS | failed |
| MSRSLGIPVKLLHEASGHIVTVELKSGELYRGSMIECEDNWNCQLEDITYTAKDGKVSQLEHVFIRGSKVRFMVIPDILKHAPMFKRLDARIKGKSSSLGVGRGRGAMRGKPAAGPGRGTGGRGAVPPVRR | failed |
| MSRSVLQPSQQKLAEKLTILNDRGVGMLTRLYNIKKACGDPKAKPSYLIDKNLESAVKFIVRKFPAVE | failed |
| MSRTVMCRKYHEELPGLDRPPYPGAKGEDIYNNVSRKAWDEWQKHQTMLINERRLNMMNAEDRKFLQQEMDKFLSGEDYAKADGYVPPSA | not failed |
| MSRVSLPHDAKAGPTKPEVRAVLASKLALTGSDHFAEVGSCTGAVTITAARRAGRVTALERKGNRLDVTRKNLAANDVDADVELREAEAPEGLPDDADVLFLGGSRNYEAILDHAVETGVDRIVMNVSRLEVAGAATEAFRERDILEEVVQFQVSHGYELAGATSFNSENPVYMLVGSASEDVAADGGSPTETEATDGGQR | failed |
| MSSAIRKAAKGGQCTPNIAGVCNDNPETVVLCRFPGETHGAGLKSGGLGAGFGCGCRRGAIDGRGAGLSREDKEFYMRRSQLRTIRRLEALGVVGVKGRLK | failed |
| MSSEEDYFDELEYDLADEVNEEKEDIQTKKLTTVNCQTEKFNPFEILPESIELFRTLALISPDRLSLSETAQILPKIVDLKRILQQQEIDFIKLLPFFNEIIPLIKSNIKLMHNFLISLYSRRFPELSSLIPSPLQYSKVISILENENYSKNESDELFFHLENKAKLTREQILVLTMSMKTSFKNKEPLDIKTRTQILEANSILENLWKLQEDIGQYIASKISIIAPNVCFLVGPEIAAQLIAHAGGVLEFSRIPSCNIASIGKNKHLSHELHTLESGVRQEGYLFASDMIQKFPVSVHKQMLRMLCAKVSLAARVDAGQKNGDRNTVLAHKWKAELSKKARKLSEAPSISETKALPIPEDQPKKKRAGRKFRKYKEKFRLSHVRQLQNRMEFGKQEQTVLDSYGEEVGLGMSNTSLQQAVGATSGSRRSAGNQAKLTKVMKHRISEANQQADEFLISLGHNTEQPNLSPEMVQMHKKQHTNPEEETNWFSGHG | failed |
| MSSEGRNHNWDYAAIGTPEDFLASWSASRGNLRRFFEDHAAAPINDAAQRQAGEAAATQAVAAIYGMELNEFNAGVDAVAGAIESAGAIHVSIPDPDVPQDVGAAAFFDVDNTLIQGSSLIVFAQGLFRKKFFTIKEILPVVWKQVKFKLTGSENAEDVSRGREQALEFIKGRPVQELVDLCEEIVDQRMADKMWPGTKQLADMHIAAGHQVWLVSATPVQLAQILAQRLGFTGAIGTVAEAKDGVFTGRLVGDILHGPGKRHAVAALASIEQLDLTRCTAYSDSINDLPMLSMVGTAVAVNPDSKLRKEAETRGWDVRDFRSIRKATREYGIPALVTAAFSVAGWRLRRRWRKQ | failed |
| MSSEKERKKKIFFQRILTVVFLGTFFYSVYELGDIFMDYYENRKVMAEAQNIYEKSPMEEQSQDGEVRKQFKALQQINQEIVGWITMDDTQINYPIVQAKDNDYYLFRNYKGEDMRAGSIFMDYRNDVKSQNRNTILYGHRMKDGSMFGSLKKMLDEEFFMSHRKLYYDTLFEGYDLEVFSVYTTTTDFYYIETDFSSDTEYTSFLEKIQEKSLYKTDTTVTAGDQIVTLSTCDYALDPEAGRLVVHAKLVKRQ | not failed |
| MSSEMEPLLLAWSYFRRRKFQLCADLCTQMLEKSPYDQAAWILKARALTEMVYIDEIDVDQEGIAEMMLDENAIAQVPRPGTSLKLPGTNQTGGPSQAVRPITQAGRPITGFLRPSTQSGRPGTMEQAIRTPRTAYTARPITSSSGRFVRLGTASMLTSPDGPFINLSRLNLTKYSQKPKLAKALFEYIFHHENDVKTIHLEDVVLHLGIYPFLLRNKNHIEKNALDLAALSTEHSQYKDWWWKVQIGKCYYRLGMYREAEKQFKSALKQQEMVDTFLYLAKVYVSLDQPVTALNLFKQGLDKFPGEVTLLCGIARIYEEMNNMSSAAEYYKEVLKQDNTHVEAIACIGSNHFYSDQPEIALRFYRRLLQMGIYNGQLFNNLGLCCFYAQQYDMTLTSFERALSLAENEEEAADVWYNLGHVAVGIGDTNLAHQCFRLALVNNNNHAEAYNNLAVLEMRKGHVEQARALLQTASSLAPHMYEPHFNFATISDKIGDLQRSYVAAQKSEAAFPDHVDTQHLIKQLRQHFAML | failed |
| MSSENDFVEFSSMFERIIQGRGDGLSRFLPVIVALAAREDDDDQGSTDQTTRRGDPLSPRFVMIGSRSGLDDFFSDGGKQGRSPALKSEVENMPRVVIGEDKEKYGGSCAICLDEWSKGDVAAEMPCKHKFHSKCVEEWLGRHATCPMCRYEMPVEEVEEEKKIGIWIGFSINAGDRRN | failed |
| MSSERDLVNFLGDFSMDVAKAVIAGGVATAIGSLASFACVSFGFPVILVGGAILLTGIVCTVVLNEIDAQCHLSEKLKYAIRDGLKRQQELDKWKRENMTPFMYVLNTPPVI | failed |
| MSSEYKKGIFLALGAYILWGILPIYWRLIDEIGAFEILAFRIIFSVIFMIFVLIIGKNQRNAFFRDVNQLVSHPVQLIAIIVAGYVITVNWGTFIWAVSNGHVLQSSLGYYINPLVSIVLALIFLKERFNKFEWLAIIFALVGVLYMTIKIGEFPFISLLLAFSFGIYGLLKKIVHIDAISSITIECIVTAPAGLIYVIYLWQQQHITFGLNISSFWLLFSGAITAIPLILFSAGAKRIPLSLTGFIQYVGPTIMFILGIFVFKEPFNTDQLITFIFIWIGIVLYSISQYVQIKKNPVVK | failed |
| MSSHNMTEVLVGGAVLAAALTFGIYASQATGLSRGTGGYELAASFRSLEGVTVGTDVRLAGVKIGTVTGVDLNPESYRADTRFTVSEGIQIPDDSAAVISSEGLLGGNFLEIMPGGSAFYFEPGDVIDDTQGAVSLISLLVKFVAGDGSGELEHHHHHH | not failed |
| MSSKMVKSSEIVGKLNLRAHQEGGFFAETFRDSSVFLSTSQLPPTFKVDRAVSTSIYFLLPSGSVSRLHRIPMAETWHFYLGEPLTVVELYDDGKLKFTCLGPDLFEGDQKPQYTVPPNVWFGSFPTKDVHFSQDGALLKAEARDSENHFSLVGCTCAPAFQFEDFELAKRSDLLSRFPQHESLITMLSYPE | failed |
| MSSKPLYTILTVFNPIFIYFTKRDNLHTLRFKKDRAIKISEELFPDELCERCGRCCILHAYKTEDGIKTIYCEHLDPETKLCKVYKDRFKHRCLTVMEGILAGVFPKDCPYVKNLKNYEEPWFYRHLRDLEHHHHHH | failed |
| MSSKRPPAPPPPIPGFKYISLLGSGGFSDVYLYEQDRPRRKVAVKVLLSDLKTEGARRRFESEANLMAQLSSHPYIVTIFEAEITETGHSYLAMEYCSRPSLDVRYRRQRFSVDEVLAVGIQVASAVETAHRAGIVHRDIKPANILVTDYNRPALTDFGISGTIGADTEDDAGMSIPWSPPEQFRGGAVDGVPVDIWALGATLYTLLAGRSPFVLPGQDNSQRELISRITNSPLPRLGRADVPESLELVLATSMAKSPESRYSSAHAFALALQRIQAELNLSVTPFEVLEEPGHGDDQHPDDNFEETRVRSIASIDPDASGTATTGSAPTFPARTFPTTATGASGQPTQPQSLPTSRPQPTNPPQTVQSHAGSSAPPQFHAPAPGSYTAPGSYTAPGTYTAPGTYRASGSHNATAEPDTAESTVLRGWQPSRPQDDLGATVSRSNSPAGASPATREDARPADHSKRNLWLAATGAAVLVVAIVVGVVLGAQAQPKVVPTEAASKPPADALGDGSVPDVEGLIGVKDPEKPDFADFRWTNPQPQSGDMYMWRYRTALIPEGDYEAVTEPHARPYFGGEKQLCIQVIIVRRDGTSSPGDTGSIACVDQ | failed |
| MSSLFVVGIGPGSNDLMTPQASLAIERSEYVIGFSLYVSFIKEKFPNKIYISNGMQGEIERAKKAIELARSGHNVSIISSGDAGIYGIAGAVFEILSTLEDNMPEVSVVPGIS | not failed |
| MSSLILSTFAERLTELGQRTTFLELPPYLDRSFPNSNSGKVVQVGKYLPPEVKHKAVDLLREYKDV | failed |

Source: a protein production outcome set (Wang et al. 2014)
